In patent US20260250420A1 (SICHUAN KELUN BIOTECH BIOPHARMACEUTICAL, published 2026):

B1: Hu24 (PTK7 control antibody, taken from Hu24 in the Patent CN201580030255) (antibody)
chain 1: QVQLVQSGPEVKKPGASVKVSCKASGYTFTDYAVHWVRQAPGKRLEWIGVISTYNDYTYNNQDFKGRVTMTRDTSASTAYMELSRLRSEDTAVYYCARGNSYFYALDYWGQGTSVTVSS
chain 2: EIVLTQSPATLSLSPGERATLSCRASESVDSYGKSFMHWYQQKPGQAPRLLIYRASNLESGIPARFSGSGSGTDFTLTISSLEPEDFAVYYCQQSNEDPWTFGGGTKLEIK
B2: 64A10HZ (anti-human PTK7 humanized antibody) (antibody, human IgG1, kappa, V domains shown)
VH: QVQLQESGPGLVKPSETLSLTCTVSGFSLTSYGVYWVRQPPGKGPEWLGVIWTSGNTNYNPSLKSRLTISKDNSKNQVSLKLSSVTAADTAVYYCVKHDGGNYVGVMNYWGQGTLVTVSS
VL: EIVMTQSPDFQSVTPKEKVTITCRASQSISDYLHWYQQKPDQSPKLLIKYASQSISGVPSRFSGSGSGSDFTLTINSLEAEDAATYYCQNGHSFPPTFGQGTKLEIKR
notes: Human IgG1 heavy chain constant region and human Kappa light chain constant region; expressed in CHO-S cells

Key:
[1] = target: T1, human PTK7 protein (extracellular sequence of human PTK7 with C-terminal 6×His tag) (human, UniProt Q13308 31-704); test: ELISA, coated human PTK7 protein 1 µg/ml
T1 construct: extracellular domain; Expressed transiently in HEK293 cells; also called human PTK7-His; human PTK7-His protein
T1 sequence: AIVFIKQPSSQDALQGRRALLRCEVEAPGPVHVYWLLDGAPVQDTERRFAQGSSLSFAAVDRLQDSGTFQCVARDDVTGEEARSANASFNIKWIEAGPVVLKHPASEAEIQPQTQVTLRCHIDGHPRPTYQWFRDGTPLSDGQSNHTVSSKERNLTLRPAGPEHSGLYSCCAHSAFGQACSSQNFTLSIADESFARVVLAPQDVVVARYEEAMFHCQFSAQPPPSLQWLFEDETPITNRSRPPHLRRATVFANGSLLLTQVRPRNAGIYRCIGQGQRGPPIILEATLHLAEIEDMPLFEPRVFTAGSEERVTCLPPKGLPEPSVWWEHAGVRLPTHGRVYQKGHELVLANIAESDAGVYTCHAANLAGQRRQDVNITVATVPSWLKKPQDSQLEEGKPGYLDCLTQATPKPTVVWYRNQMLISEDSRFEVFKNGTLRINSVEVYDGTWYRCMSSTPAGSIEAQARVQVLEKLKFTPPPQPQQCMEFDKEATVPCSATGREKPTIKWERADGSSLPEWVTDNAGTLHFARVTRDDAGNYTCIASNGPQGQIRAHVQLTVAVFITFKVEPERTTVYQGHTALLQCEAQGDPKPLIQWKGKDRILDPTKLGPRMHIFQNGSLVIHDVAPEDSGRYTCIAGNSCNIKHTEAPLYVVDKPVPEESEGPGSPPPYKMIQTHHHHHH
Experimental: Original data was imported into software for nonlinear curve fitting, and EC₅₀ of binding of each antibody to human PTK7 and monkey PTK7 was calculated, respectively. As shown in Table 1 and FIGS. 1A-1B, the screened antibodies could be bound to the human and monkey PTK7 proteins with affinity higher than that of the control antibody Hu24.

[2] = target: T2, human PTK7 on cells (tumor cells endogenously expressing PTK7); CHO-hPTK7, CHO-S-hPTK7 and 293T-hPTK7 … (human, UniProt Q13308 31-1070); test: competition flow cytometry on 293T-hPTK7 cells, streptavidin-PE; competitor: biotin-labelled 64A10HZ
T2 construct: whole, on cells; The cell line of each value is named under assay; also called H1299; H358
T2 sequence (looked up): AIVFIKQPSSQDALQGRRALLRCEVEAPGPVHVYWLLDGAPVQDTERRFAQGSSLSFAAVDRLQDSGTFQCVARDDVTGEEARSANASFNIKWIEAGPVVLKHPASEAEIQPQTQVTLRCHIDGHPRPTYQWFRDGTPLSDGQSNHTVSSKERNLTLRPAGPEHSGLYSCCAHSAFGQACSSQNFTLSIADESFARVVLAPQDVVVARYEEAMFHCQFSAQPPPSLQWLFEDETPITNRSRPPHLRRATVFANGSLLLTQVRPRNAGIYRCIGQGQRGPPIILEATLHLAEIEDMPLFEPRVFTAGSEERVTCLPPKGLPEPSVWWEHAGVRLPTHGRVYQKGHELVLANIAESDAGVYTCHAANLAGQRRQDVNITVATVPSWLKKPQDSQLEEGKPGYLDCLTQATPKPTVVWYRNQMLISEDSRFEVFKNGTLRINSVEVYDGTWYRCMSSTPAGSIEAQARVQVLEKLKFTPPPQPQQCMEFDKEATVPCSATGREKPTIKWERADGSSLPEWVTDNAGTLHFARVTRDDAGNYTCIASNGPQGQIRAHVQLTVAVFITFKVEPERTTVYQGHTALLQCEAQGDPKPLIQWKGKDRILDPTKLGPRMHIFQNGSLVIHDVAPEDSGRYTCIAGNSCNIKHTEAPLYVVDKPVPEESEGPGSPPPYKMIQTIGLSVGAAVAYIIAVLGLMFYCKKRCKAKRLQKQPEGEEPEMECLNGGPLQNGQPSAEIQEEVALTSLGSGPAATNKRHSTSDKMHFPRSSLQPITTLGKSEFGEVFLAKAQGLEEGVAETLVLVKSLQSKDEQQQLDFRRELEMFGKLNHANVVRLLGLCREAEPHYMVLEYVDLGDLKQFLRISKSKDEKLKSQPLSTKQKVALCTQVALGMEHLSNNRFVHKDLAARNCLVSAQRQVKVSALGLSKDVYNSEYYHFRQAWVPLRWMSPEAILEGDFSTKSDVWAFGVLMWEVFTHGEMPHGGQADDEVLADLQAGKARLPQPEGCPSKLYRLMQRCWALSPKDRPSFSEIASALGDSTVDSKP

[3] = target: T1, human PTK7 protein (extracellular …); test: competition ELISA on coated human PTK7 protein; competitor: biotin-labelled 64A10HZ at a fixed concentration
Experimental: The human PTK7 protein was diluted to reach 1 μg/ml by using the CBS coating liquid, coated by a 96-well microtiter plate at a density of 100 μl/well, and stood overnight at 4° C.; and after the plate was washed and blocked, the biotin-labeled antibody and the to-be-detected antibody were added, and incubated for 2 h at room temperature. After the plate was washed, the secondary antibody was added for incubation, and finally was subjected to color development, then the reaction was terminated, and the absorbance at OD₄₅₀ nm was read by the microplate reader. The original data was imported into software for nonlinear curve fitting (four parameters).

Binder	EC50 [1] [µg/mL]	IC50 (read off the curve) [2] [µg/mL]	IC50 (read off the curve) [3] [µg/mL]
B1	0.0457	–	–
B2	–	~0.3	~0.2
